The record followed here is patent publication US20230036213A1.

This test addresses HLA-DR (human). Description: cell-based or functional assay.

With GEFRYYPNIIAKGVG [HPIV3 Matrix Epitope Peptide 84 (…)], the IFN-gamma production, decrease in the presence of HLA-DR blocking antibodies was 32 to 80%.
